Measurements reported in patent US20110300156A1 (Genmab, published 2011).

Tests used:
[1] = target: T1, human tissue factor (TF), membrane-bound on cells (human, UniProt P13726 33-295); experiment: FACS, Bx-PC3 cells
T1 construct: whole, on cells; also called cellular TF
Summary of the method: (§1)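 Flow cytometry readout of PE-labelled anti-human IgGFc bound to cells after a 30 min on-ice incubation with HuMab dilution series. Binding curves analysed by non-linear regression (sigmoidal dose-response, variable slope). HuMab-KLH served as negative control.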

[2] = target: T1, human tissue factor (TF), …; experiment: FACS, MDA-MB-231 cells
Summary of the method: as §1

[3] = target: T1, human tissue factor (TF), …; experiment: cell-based or functional assay
[4] = target: T1, human tissue factor (TF), …; experiment: FACS, Bx-PC3 cells, 30 µg/mL
Summary of the method: as §1

[5] = target: T1, human tissue factor (TF), …; experiment: FACS, MDA-MB-231 cells, 30 µg/mL
Summary of the method: as §1

[6] = target: T2, TFECDHis (extracellular domain of tissue factor, amino acid 1-251, with C-terminal His tag) (human, UniProt P13726 33-251); experiment: ELISA, coated TFECDHis, mean of 3
T2 construct: range 1-251; The stated range 1-251 starts at residue 1 of NP-001984; also called extracellular domain of TF
Summary of the method: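 Plates coated overnight at +4° C with 0.5 μg/mL TFECDHis in PBS pH 7.4, blocked with 2% chicken serum. Serially diluted HuMabs bound 1 h at RT with shaking, detected with HRP anti-human IgG. Binding curves fitted by sigmoidal dose-response with variable slope; anti-KLH HuMab served as negative control.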

[7] = target: T2, TFECDHis (extracellular domain of …); experiment: SPR BIAcore 3000, HuMab immobilized, TFECDHis analyte
Summary of the method: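 HuMab antibodies (500 RU) amine-coupled on a CM-5 chip; TFECDHis concentration series in HBS-EP run over them at 30 μl/min for 180 sec. Surface regenerated with glycine pH 2.0 or acetate pH 3.0; kinetics from double-referenced 1:1 Langmuir fitting.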

[8] = target: T2, TFECDHis (extracellular domain of …); experiment: competition ELISA, inhibition of FVIIa (100 nM) binding to coated TFECDHis
Experimental: ELISA plates were coated overnight with TFECDHis (0.5 μg/mL, 100 μL per well). Plates were emptied, blocked with PBS containing 2% (v/v) chicken serum (1 hour, RT), and emptied again. […] Plates were washed and incubated with swine-anti-rabbit IgG-HRP antibody (1:2,500; DAKO). After washing, the immune complexes were visualized using ABTS as a substrate.

[9] = target: T3, murine tissue factor (TF) on transfected HEK293F cells (murine, UniProt P20352 29-294); experiment: FACS on transfected HEK293F cells, 30 µg/mL antibody [panel I]
T3 construct: whole, on cells; also called murine TF; TFmm
T3 sequence (looked up): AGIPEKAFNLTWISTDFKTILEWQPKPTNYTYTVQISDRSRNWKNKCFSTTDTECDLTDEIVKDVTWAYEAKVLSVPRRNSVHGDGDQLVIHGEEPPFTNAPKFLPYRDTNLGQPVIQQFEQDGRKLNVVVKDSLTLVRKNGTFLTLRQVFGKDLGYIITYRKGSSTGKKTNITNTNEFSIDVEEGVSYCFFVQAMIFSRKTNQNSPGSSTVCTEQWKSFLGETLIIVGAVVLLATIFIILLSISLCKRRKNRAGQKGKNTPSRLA

[10] = target: T2, TFECDHis (extracellular domain of …); experiment: SPR BIAcore 3000, HuMab immobilized, TFECDHis analyte; footnote: n.a. not assessable = >10^-3 sec^-1
Experimental: Antibody binding to TF was analyzed by surface plasmon resonance in a BIAcore 3000 (GE Healthcare). TFECDHis was used for the analysis. HuMab antibodies (500 resonance units) were immobilized on the CM-5 sensor chip according to the procedure recommended by the manufacturer. Briefly, after surface activation by EDC and NHS HuMab antibody was injected over the activated CM-5 surface in 10 mM sodium-acetate, pH ranging from 4.0 to 5.5 at 5 μl/min. followed by 1 M Ethanolamine for deactivation. Concentration series of TFECDHis in HBS-EP buffer were injected over the immobilized antibodies at a flow rate of 30 μl/min for 180 sec. Regeneration of the HuMab surface was performed by injection of 10 mM Glycine-HCl pH 2.0 or 10 mM sodium acetate pH 3.0. Kinetic analysis was performed using double reference subtraction and model 1:1 (langmuir) binding analysis.

EC50 [1]: 7.19 nM
EC50 [2]: 8.28 nM
max inhibition of FVIIa induced IL-8 release (MDA-MB-231) [3]: 4.3%
Max MFI [4]: 1030
Max MFI [5]: 1110
EC50 [6]: 0.09 nM
kon [7]: 591000 M⁻¹ s⁻¹
max inhibition [8]: 35%
binding result [9]: no binding (tested: 30 µg/mL)
koff [10]: > 0.001 s⁻¹
B1: anti-TF HuMab 087-Lg6 (antibody, V domains shown)
VH: EVQLVQSGAEVKKPGESLKISCKGSGYSFTSCWIGWVRQMPGKGLEWMGIIYPGDSDTRYSPSFQGQVTISADKSISTAYLQWSSLKASDTAMYYCARHKLGMDHDAFDIWGQGTMVTVSS
VL: DIQMTQSPSSLSASVGDRVTITCRASQGISSWLAWYQQKPEKAPKSLIYAASSLQSGVPSRFSGSGSGTDFTLTISSLQPEDFATYYCQQYNSYPPTFGQGTTVEVK
notes: Human monoclonal antibody from HuMab mice
